Test results published in patent US8530168B2, “Fusion protein comprising a Caspase domain and a nuclear hormone receptor binding domain and methods and uses thereof” (Helmholtz Zentrum Munich Deutsches Forschungszentrum fuer …, priority 2007, dated 2013).
Entries after “also recorded” stand apart in the source; their conditions may differ.

B1: Casp3-ED4ER(T2): full length murine Caspase-3 fused directly to N-terminal shortened ER(T2) domain, SEQ ID NO: 41 (protein)
chain: MENNKTSVDSKSINNFEVKTIHGSKSVDSGIYLDSSYKMDYPEMGICIIINNKNFHKSTGMSSRSGTDVDAANLRETFMGLKYQVRNKNDLTREDILELMDSVSKEDHSKRSSFVCVILSHGDEGVIYGTNGPVELKKLTSFFRGDYCRSLTGKPKLFIIQACRGTELDCGIETDSGTDEEMACQKIPVEADFLYAYSTAPGYYSWRNSKDGSWFIQSLCSMLKLYAHKLEFMHILTRVNRKVATEFESFSLDSTFHAKKQIPCIVSMLTKELYFYHLESLALSLTADQMVSALLDAEPPILYSEYDPTRPFSEASMMGLLTNLADRELVHMINWAKRVPGFVDLTLHDQVHLLECAWLEILMIGLVWRSMEHPVKLLFAPNLLLDRNQGKCVEGMVEIFDMLLATSSRFRMMNLQGEEFVCLKSIILLNSGVYTFLSSTLKSLEEKDHIHRVLDKITDTLIHLMAKAGLTLQQQHQRLAQLLLILSHIRHMSNKGMEHLYSMKCKNVVPLYDLLLEAADAHRLHAPTSRGGASVEETDQSHLATAGSTSSHSLQKYYITGEAEGFPATA
modifications: fusion gene Casp3-ED4ER(T2)
B2: Casp9trunc-ER(T2): truncated murine Caspase-9 without CARD domain fused to ER(T2) ligand binding domain, SEQ ID NO: 32 (protein)
chain: MGRQAAKQDPEAVKPLDHLVPVVLGPMGLTAKEQRVVKLDPSQPAVGNLTPVVLGPEELWPARLKPEVLRPETPRPVDIGSGGAHDVCVPGKIRGHADMAYTLDSDPCGHCLIINNVNFCPSSGLGTRTGSNLDRDKLEHRFRWLRFMVEVKNDLTAKKMVTALMEMAHRNHRALDCFVVVILSHGCQASHLQFPGAVYGTDGCSVSIEKIVNIFNGSGCPSLGGKPKLFFIQACGGEQKDHGFEVACTSSQGRTLDSDSEPDAVPYQEGPRPLDQLDAVSSLPTPSDILVSYSTFPGFVSWRDKKSGSWYIETLDGILEQWARSEDLQSLLLRVANAVSAKGTYKQIPGCFNFLRKKLFFKTSVEPSAGDMRAANLWPSPLMIKRSKKNSLALSLTADQMVSALLDAEPPILYSEYDPTRPFSEASMMGLLTNLADRELVHMINWAKRVPGFVDLTLHDQVHLLECAWLEILMIGLVWRSMEHPVKLLFAPNLLLDRNQGKCVEGMVEIFDMLLATSSRFRMMNLQGEEFVCLKSIILLNSGVYTFLSSTLKSLEEKDHIHRVLDKITDTLIHLMAKAGLTLQQQHQRLAQLLLILSHIRHMSNKGMEHLYSMKCKNVVPLYDLLLEAADAHRLHAPTSRGGASVEETDQSHLATAGSTSSHSLQKYYITGEAEGFPATA
modifications: fusion protein Casp9trunc-ER(T2)

Assays:
Assay type in all cases: cell-based, mouse
MEF5/N9 cells [1] = assay: Transient cotransfection of ER(T2) fusion expression vectors with β-galactosidase reporter; β-galactosidase activity in lysates; settings: 10^−8 M 4-OH-tamoxifen, 48 h
Method: The transformed mouse embryonic fibroblast cell line MEF5/N9 (Schwenk et al., Nucleic Acids Research, 26(6) 1427-1432 (1998)) was obtained from Michel Aguet (University of Zurich, Switzerland). The cells were grown in DMEM medium (Life Technologies) supplemented with 2 mM […] and 10% fetal calf serum at 37° C., 5% CO2 in humid atmosphere and passaged upon trypsinization. One day before transient transfection 4·10^4 cells were plated into a 24-well plate (Falcon). For the transient transfection of MEF5/N9 cells with plasmids, each well received into 500 μl of medium a total amount of 150 ng or 200 ng supercoiled plasmid DNA complexed before with the FuGene6 transfection reagent (Roche Diagnostics GmbH, Mannheim, Germany) according to the manufacturer's protocol. Each 150 ng or 200 ng DNA preparation (FIG. 2 sample 1 to 11) contained 100 ng of the β-Galactosidase expression vector pCMV-β-gal-pA (pCMVβ, Clontech, FIG. 1G, SEQ ID NO: 56), and 100 ng of the fusion ER(T2) expression vectors to be tested (FIG. 2 sample 3-7, 10-11) and the control plasmids (FIG. 2 sample 1-3), except for the samples with the plasmids pCAG-Casp9full-ER(T2)-bpA (FIG. 2 sample 8) and pCAG-Casp9trunc-ER(T2)-bpA (FIG. 2 sample 9), respectively, that received 50 ng of the test vector. For each sample to be tested four individual wells were transfected. Five hours after the addition of the DNA preparations each well received additional 500 μl of growth medium. The following day, the medium of two wells of each sample was replaced by fresh medium. The other two wells received medium containing 10^−8 M 4-hydroxy-tamoxifen (Sigma). 48 hours after induction with 4-OH-tamoxifen, the cells of each well were lysed with 200 μl lysate reagent supplemented with protease inhibitors (Roche Diagnostics GmbH). The lysates were centrifuged and 50 μl were used to determine the β-galactosidase activities using the β-galactosidase reporter gene assay (Roche Diagnostics GmbH) according to the manufacturer's protocol in a microplate luminometer (Berthold Detection Systems GmbH). The mean value and standard deviation of the samples was calculated from the β-galactosidase RLU values obtained from the two transfected wells of each sample. The relative β-galactosidase activity was obtained by comparison to the negative control (pCAG-Cre-ER(T2)-bpA) without 4-OH-tamoxifen.
To investigate the cell death effect of the different ER(T2) fusion constructs quantitatively, we performed transient cotransfections of the ER(T2) fusion protein expression vectors together with a fixed amount of a reporter plasmid coding for β-galactosidase in MEF5/N9 fibroblast cells. Transfected cells were treated 12 hours after transfection with 4-OH-tamoxifen at a concentration of 10^−8 M. Following 48 hours of 4-OH-tamoxifen induction, the cells from the various samples were lysed and the activity of β-galactosidase in the lysates was determined by a chemiluminescence assay and expressed in “Relative Light Units” (RLU) (FIG. 2). As positive controls for 4-OH-tamoxifen-inducible cell death, we prepared samples transfected with the constructs pCAG-HAFas-ER(T2) or pCAG-MFas-ER(T2) together with the reporter plasmid and treatment with 4-OH-tamoxifen. As negative control for this assay served samples which received the reporter plasmid together with the expression vector pCAG-Cre-ER(T2) and that were treated with 4-OH-tamoxifen.
To determine the relative activity of the tested ER(T2) fusion constructs inducing apoptosis in the presence of 4-OH-tamoxifen, the RLU values of β-galactosidase activity were divided individually for each sample by the RLU value obtained from the sample which received the plasmid pCAG-Cre-ER(T2) but was not treated with 4-OH-tamoxifen (defined as negative control). The relative activity of the tested Caspase- or bax-ER(T2) fusion proteins was then compared to the negative control for 4-OH-tamoxifen-dependent cell death defined as an activity of 1.

MEF5/N9 cells [2] = assay: as above; settings: no 4-OH-tamoxifen; transient transfection 50 or 100 ng vector; relative to Cre-ER(T2) without 4-OH-tamoxifen
MEF5/N9 cells [3] = assay: Visible phenotypic changes / viability of stably transfected MEF5/N9 clones on 4-OH-tamoxifen treatment; settings: 10^−8 M 4-OH-tamoxifen, 24 h
Method: (§1) To generate stably transfected MEF5/N9 cells, 2·10^6 cells were coelectroporated with 32 μg ER(T2) fusion plasmid DNA linearised with ScaI and 8 μg pPgk-hygro-pA plasmid DNA linearised with XhoI and plated into two 96-well plates. The cells were grown in DMEM medium (Invitrogen) supplemented with 2 mM Glutamine and 10% fetal calf serum at 37° C., 5% CO2 in humid atmosphere, and passaged upon trypsinization. Two days after transfection the medium was supplemented with 250 U/ml of hygromycin (Calbiochem) for the selection of stable integrants. Upon the growth of resistant colonies these were individually expanded in the presence of hygromycin.
To examine 4-OH-tamoxifen-dependent cell death, 1·10^5 MEF5/N9 cells expressing ER(T2) fusion proteins were plated into each well of a six-well plate. The following day, for each sample the medium in two of four individual wells were replaced with medium supplemented with 10^−8 M 4-hydroxy-tamoxifen. 24 hours after induction with 4-OH-tamoxifen, cells were photographed through a Leica DMI6000B fluorescence microscope with phase contrast either at 10-fold or 20-fold magnification.
Since the responsiveness of the clones, transfected with the same construct, to 4-OH-tamoxifen differed only slightly from each other, only the results obtained from one clone for each construct are shown in the figure.

MEF5/N9 cells [4] = assay: MTT cytotoxicity assay of stably transfected MEF5/N9 clones; settings: 10^−8 M 4-OH-tamoxifen, 48 h
Method: as §1
To quantify 4-OH-tamoxifen-inducible cell death, we applied the colorimetric MTT assay (Mossman, J. Immunol. Methods, 65, 55 (1983)) allowing the quantification of cell survival. Cells (4·10^3) were plated on 96-well plates. The assay was carried out in three replicas for each sample treated with and without 4-OH-tamoxifen. After 12 h, medium was replaced either with fresh medium or with medium supplemented with 10^−8 M 4-OH-tamoxifen. Following 48 h of 4-OH-tamoxifen treatment, sterile filtered MTT reagent in PBS (Sigma) was added at the concentration of 0.5 mg/ml. Incubation occurred for 4 hours at 37° C. With ongoing reaction time, dark violet MTT formazan crystals appeared on the bottom of the wells containing living cells. The crystals were dissolved in 150 μl 0.04 N HCl/isopropanol to give a homogeneous blue solution suitable for absorbance measurement at a wavelength of 570 nm on the Synergy™ HT Multi-Detection Microplate Reader (BioTek).

Molecule	4-OH-tamoxifen-dependent activity / toxicity in transient transfection (in words) (MEF5/N9 cells [1])	basal toxicity: relative β-galactosidase activity compared to the negative control in absence of 4-OH-tamoxifen (MEF5/N9 cells [2]) [%]	4-OH-tamoxifen-dependent cell death, phenotype of stable clones (MEF5/N9 cells [3])	4-OH-tamoxifen-dependent cell death, phenotype of stable clones (MEF5/N9 cells [3]; listed as ERBax)	cell viability in the presence of 4-OH-tamoxifen (MTT) (MEF5/N9 cells [4])	relative β-galactosidase activity in presence of 4-OH-tamoxifen compared to the negative control (MEF5/N9 cells [1]; relative to Cre-ER(T2) without 4-OH-tamoxifen) [%]	4-OH-tamoxifen-dependent cell death, phenotype of stable clones (MEF5/N9 cells [3]; listed as Casp9truncER)
Bax-ER(T2): N-terminal fusion of full length murine Bax to ER(T2) ligand binding domain, SEQ ID NO: 48	neither the N-terminal nor the C-terminal fusion of Bax to ER(T2) displayed any activity	100					
ER(T2)-Bax: spaceless C-terminal fusion of murine Bax to ER(T2), SEQ ID NO: 55; used as negative control in stable clones	no tamoxifen-dependent activity; also recorded: neither the N-terminal nor the C-terminal fusion of Bax to ER(T2) displayed any activity	84	did not respond to 4-OH-tamoxifen	not affected by the treatment with 4-OH-tamoxifen	not affected by treatment with 4-OH-tamoxifen		
B1	could not be regulated in presence of 4-OH-tamoxifen	52					
B2		70	weaker susceptibility to 4-OH-tamoxifen			22	substantial cell death
